Earlier results, collected in publication PMC8168288.
pKd: −log10 of the molar value.

Target: BCOR peptide (Homo sapiens) (UniProt Q6W2J9)
Assay: SPR

BCOR peptide (Homo sapiens), sequence (Q6W2J9 whole entry): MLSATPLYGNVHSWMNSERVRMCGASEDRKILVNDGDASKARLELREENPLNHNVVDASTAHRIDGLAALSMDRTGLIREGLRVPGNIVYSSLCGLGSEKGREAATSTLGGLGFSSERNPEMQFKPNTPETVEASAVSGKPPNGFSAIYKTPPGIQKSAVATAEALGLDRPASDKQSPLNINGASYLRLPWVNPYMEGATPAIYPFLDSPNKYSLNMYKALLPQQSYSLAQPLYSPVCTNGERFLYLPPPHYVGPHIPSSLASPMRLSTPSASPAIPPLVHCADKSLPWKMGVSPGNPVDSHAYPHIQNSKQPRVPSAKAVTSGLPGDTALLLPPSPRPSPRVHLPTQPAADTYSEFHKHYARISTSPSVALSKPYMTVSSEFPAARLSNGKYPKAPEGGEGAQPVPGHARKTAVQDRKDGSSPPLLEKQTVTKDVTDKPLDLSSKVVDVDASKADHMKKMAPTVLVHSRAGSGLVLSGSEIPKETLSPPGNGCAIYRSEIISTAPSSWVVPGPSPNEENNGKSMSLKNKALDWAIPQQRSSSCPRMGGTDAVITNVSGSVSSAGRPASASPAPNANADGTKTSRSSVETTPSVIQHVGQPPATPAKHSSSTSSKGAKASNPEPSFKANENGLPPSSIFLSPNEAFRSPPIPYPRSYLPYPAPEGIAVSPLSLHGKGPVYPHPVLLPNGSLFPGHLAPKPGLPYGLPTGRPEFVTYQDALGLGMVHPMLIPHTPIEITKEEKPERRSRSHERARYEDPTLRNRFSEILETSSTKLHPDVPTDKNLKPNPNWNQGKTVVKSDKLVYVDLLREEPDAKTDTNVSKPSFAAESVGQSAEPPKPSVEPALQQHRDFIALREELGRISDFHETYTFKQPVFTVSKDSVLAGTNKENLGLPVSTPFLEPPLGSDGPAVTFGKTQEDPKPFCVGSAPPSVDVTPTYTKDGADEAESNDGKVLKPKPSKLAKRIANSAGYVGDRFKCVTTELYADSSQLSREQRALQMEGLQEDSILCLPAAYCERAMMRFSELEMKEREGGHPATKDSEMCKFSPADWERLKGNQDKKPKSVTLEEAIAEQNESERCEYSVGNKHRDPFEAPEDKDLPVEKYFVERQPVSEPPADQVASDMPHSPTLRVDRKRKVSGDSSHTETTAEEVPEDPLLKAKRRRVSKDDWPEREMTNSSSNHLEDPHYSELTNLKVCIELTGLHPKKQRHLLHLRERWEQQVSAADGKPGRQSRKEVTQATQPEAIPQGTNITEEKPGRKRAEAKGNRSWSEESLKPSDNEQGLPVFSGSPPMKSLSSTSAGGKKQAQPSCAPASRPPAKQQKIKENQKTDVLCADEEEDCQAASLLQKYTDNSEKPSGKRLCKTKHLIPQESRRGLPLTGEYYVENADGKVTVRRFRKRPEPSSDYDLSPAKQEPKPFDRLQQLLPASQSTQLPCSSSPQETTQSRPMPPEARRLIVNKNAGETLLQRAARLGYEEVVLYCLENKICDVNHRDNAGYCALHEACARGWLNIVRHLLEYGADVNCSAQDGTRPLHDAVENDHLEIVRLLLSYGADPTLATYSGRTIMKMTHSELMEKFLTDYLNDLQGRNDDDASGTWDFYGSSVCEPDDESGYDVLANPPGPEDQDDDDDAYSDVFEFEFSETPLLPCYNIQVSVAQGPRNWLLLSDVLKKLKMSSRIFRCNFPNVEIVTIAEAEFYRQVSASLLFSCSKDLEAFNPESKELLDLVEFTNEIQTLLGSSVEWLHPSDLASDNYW

Substance: BCL6 BTB (from UniProt P41182)
- pKd: 5.22
